Where a chain is given by its changes, count along the chain named.
T1: QKI-5 (His-tagged) (UniProt Q96PU8 1-341)
T1 sequence: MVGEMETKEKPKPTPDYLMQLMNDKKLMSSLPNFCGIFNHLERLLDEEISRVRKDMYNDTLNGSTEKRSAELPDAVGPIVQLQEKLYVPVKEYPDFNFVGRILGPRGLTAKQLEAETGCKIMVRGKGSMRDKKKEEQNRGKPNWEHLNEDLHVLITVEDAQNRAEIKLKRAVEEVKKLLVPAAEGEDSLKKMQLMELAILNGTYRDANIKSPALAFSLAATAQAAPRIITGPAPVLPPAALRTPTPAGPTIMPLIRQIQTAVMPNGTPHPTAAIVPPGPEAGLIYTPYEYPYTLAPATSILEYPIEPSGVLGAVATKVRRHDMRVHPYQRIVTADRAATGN

T2: SF1 (aa 1-361) (UniProt Q15637 1-361)
T2 sequence: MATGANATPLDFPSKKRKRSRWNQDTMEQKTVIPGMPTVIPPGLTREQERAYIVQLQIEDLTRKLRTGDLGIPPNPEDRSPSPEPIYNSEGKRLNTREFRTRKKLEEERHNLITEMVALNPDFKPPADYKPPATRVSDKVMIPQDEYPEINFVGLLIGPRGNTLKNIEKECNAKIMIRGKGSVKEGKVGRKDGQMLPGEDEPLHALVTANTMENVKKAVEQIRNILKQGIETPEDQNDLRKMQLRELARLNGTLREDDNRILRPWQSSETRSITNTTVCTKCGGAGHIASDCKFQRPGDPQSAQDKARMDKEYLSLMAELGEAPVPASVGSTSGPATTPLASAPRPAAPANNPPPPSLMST

B1: NUMB mut2 RNA (ssRNA)
RNA: GGGCACUUGUACACCCUGCAUGAAUUGACUCCAUUGAUGUUGUCUGCUCCCGUUGUAGCGAGUGGCACUGACUCAGCCUUCCAU
B2: NUMB mut1 RNA (ssRNA)
RNA: B1 RNA with G27A

Columns and labels:
[1] = target: T1, QKI-5 (His-tagged); test: EMSA; 0-2080 nM QKI-5; EMSA: 10 ng 32P-RNA, standard splicing conditions, 30 C, 20 min, then tRNA 5 min; 5% native PAGE; buffer, salt and pH not given; conditions: protein: recombinant; tags: His-tag (pET-28a); reverse primer also encodes C-terminal FLAG; chain copies: 2; label: 32P
[2] = target: T2, SF1 (aa 1-361); test: EMSA; 5-10x molar excess; EMSA: 10 ng 32P-RNA, standard splicing conditions, 30 C, 20 min, then tRNA 5 min; 5% native PAGE; buffer, salt and pH not given; conditions: protein: recombinant; tags: N-terminal GST (pGEX-5X-2); label: 32P

Binder | binding result [1] | binding result [2]
B1 | no binding | 
B2 |  | binds

Source: article PMC3983035, “The RNA-Binding Protein QKI Suppresses Cancer-Associated Aberrant Splicing”
